Source: patent publication US20220402995A1 (TOSOH, published 2022)
Where a chain is given by its changes, count along the chain named.

B1: AAV-binding protein No. 52 (Leu348Pro, Leu376Pro, Val396Ala) (receptor)
chain: MGSAGESVQITLPKNEVQLNAYVLQEPPKGETYTYDWQPITHPRDYSGEMEGKHSQILKLSKLTPGPYEFKVIVEGQNAHGEGYVNATVKPEPRKNRPPIAIVSPQFQEISLPTTSTVIDGSQSTDDDKIVQYHWEELKGPLREEKISEDTAILKLSKLVPGNYTFSLTVVDSDGATNSTTANLTVNKAVDHHHHHH
B2: AAV-binding protein No. 138 (AVR8g + Gly361Cys, Gly(Ser)390Gly) (receptor)
chain: MGSAGESDQITLPKNEVQLNAYVLQEPPKGETCTYDWQLITHPRDYSGEMECEHSQILKLSNLTPGLYEFKVIVEGQNAHGEGYVNVTVEPEPRKNRPPIAIVSPQFQEISLPTTSTVIDGSQSTDDDKIVQYHWEELKGPLREEKISEDTAILKLSKLVPGNYTFRLTVVDSDGATDSTTANLTVNKAVDHHHHHH
notes: Gly(Ser)390Gly read as Ser390 of AVR8g back to the wild-type Gly, so Gly390Ser is not applied
B3: AAV-binding protein No. 134 (AVR8g + Asn329Ile, Val499Ile) (receptor)
chain: B2 chain with N20I, C52G, G81S, V190I
B4: AAV-binding protein No. 136 (AVR8g + Glu335Val, Thr343Ser) (receptor)
chain: B2 chain with E26V, T34S, C52G, G81S
B5: AAV-binding protein No. 137 (AVR8g + Thr341Pro, Phe379Ser) (receptor)
chain: B2 chain with T32P, C52G, F70S, G81S
B6: AAV-binding protein No. 127 (AVR8g + Asp483Asn) (receptor)
chain: B2 chain with C52G, G81S, D174N
B7: AAV-binding protein No. 55 (Gln365Arg, Ser370Ala, Glu391Lys) (receptor)
chain: B1 chain with P39L, Q56R, S61A, P67L, E82K, A87V
B8: AAV-binding protein No. 112 (AVR8g + Ser364Leu) (receptor)
chain: B2 chain with C52G, S55L, G81S
B9: AAV-binding protein No. 128 (AVR8g + Ser312Pro, Pro374Leu) (receptor)
chain: B2 chain with S3P, C52G, P65L, G81S
B10: AAV-binding protein No. 111 (AVR8g + Lys(Glu)362Gly) (receptor)
chain: B2 chain with C52G, E53G, G81S
notes: Glu362 of AVR8g replaced by Gly
B11: AAV-binding protein No. 119 (AVR8g + Phe379Ser) (receptor)
chain: B2 chain with C52G, F70S, G81S
B12: AAV-binding protein No. 131 (AVR8g + Asn324Ser, Gly357Cys) (receptor)
chain: B2 chain with N15S, G48C, C52G, G81S
B13: AAV-binding protein No. 104 (AVR8g + Tyr344Phe) (receptor)
chain: B2 chain with Y35F, C52G, G81S
B14: AAV-binding protein No. 116 (AVR8g + Thr373Ala) (receptor)
chain: B2 chain with C52G, T64A, G81S
B15: AAV-binding protein No. 122 (AVR8g + Gln386Arg) (receptor)
chain: B2 chain with C52G, Q77R, G81S
B16: AAV-binding protein No. 107 (AVR8g + Ser356Cys) (receptor)
chain: B2 chain with S47C, C52G, G81S
B17: AAV-binding protein No. 132 (AVR8g + Gln327His, Glu378Val) (receptor)
chain: B2 chain with Q18H, C52G, E69V, G81S
B18: AAV-binding protein No. 133 (AVR8g + Gln327Leu, Lys(Asn)371Asp) (receptor)
chain: B2 chain with Q18L, C52G, N62D, G81S
notes: Asn371 of AVR8g replaced by Asp
B19: AAV-binding protein No. 109 (AVR8g + Glu360Lys) (receptor)
chain: B2 chain with E51K, C52G, G81S
B20: AAV-binding protein No. 129 (AVR8g + Ala313Ser, Glu378Gly) (receptor)
chain: B2 chain with A4S, C52G, E69G, G81S
B21: AAV-binding protein No. 118 (AVR8g + Glu378Gly) (receptor)
chain: B2 chain with C52G, E69G, G81S
B22: AAV-binding protein No. 124 (AVR8g + Gln441Arg) (receptor)
chain: B2 chain with C52G, G81S, Q132R
B23: AAV-binding protein No. 120 (AVR8g + Lys380Glu) (receptor)
chain: B2 chain with C52G, K71E, G81S
B24: AAV-binding protein No. 105 (AVR8g + Arg353Cys) (receptor)
chain: B2 chain with R44C, C52G, G81S
B25: AAV-binding protein No. 135 (AVR8g + Glu335Gly, Gln386Arg) (receptor)
chain: B2 chain with E26G, C52G, Q77R, G81S
B26: AAV-binding protein No. 130 (AVR8g + Lys323Arg, Glu384Val) (receptor)
chain: B2 chain with K14R, C52G, E75V, G81S
B27: AAV-binding protein No. 115 (AVR8g + Leu372Gln) (receptor)
chain: B2 chain with C52G, L63Q, G81S
B28: AAV-binding protein No. 103 (AVR8g + Glu340Val) (receptor)
chain: B2 chain with E31V, C52G, G81S
B29: AAV-binding protein No. 123 (AVR8g + Tyr393Cys) (receptor)
chain: B2 chain with C52G, G81S, Y84C
B30: AAV-binding protein No. 57 (Gln334Arg, Val381Ala, His389Arg, Tyr393Cys) (receptor)
chain: B1 chain with Q25R, P39L, P67L, V72A, H80R, Y84C, A87V
B31: AAV-binding protein No. 113 (AVR8g + Ile366Thr) (receptor)
chain: B2 chain with C52G, I57T, G81S
B32: AAV-binding protein No. 126 (AVR8g + Lys448Glu) (receptor)
chain: B2 chain with C52G, G81S, K139E
B33: AAV-binding protein No. 114 (AVR8g + Leu372Pro) (receptor)
chain: B2 chain with C52G, L63P, G81S
B34: AAV-binding protein No. 56 (Asn324Ser, Thr341Ala, Leu369Pro, Phe416Ser) (receptor)
chain: B1 chain with N15S, T32A, P39L, L60P, P67L, A87V, F107S
B35: AAV-binding protein No. 108 (AVR8g + Met359Leu) (receptor)
chain: B2 chain with M50L, C52G, G81S
B36: AAV-binding protein No. 125 (AVR8g + His443Leu) (receptor)
chain: B2 chain with C52G, G81S, H134L
B37: AAV-binding protein No. 117 (AVR8g + Leu376Pro) (receptor)
chain: B2 chain with C52G, L67P, G81S
B38: AAV-binding protein No. 121 (AVR8g + Val381Ala) (receptor)
chain: B2 chain with C52G, V72A, G81S
B39: AAV-binding protein No. 54 (His363Leu, Ser364Pro, His389Leu) (receptor)
chain: B1 chain with P39L, H54L, S55P, P67L, H80L, A87V
B40: AAV-binding protein No. 110 (AVR8g + Glu360Val) (receptor)
chain: B2 chain with E51V, C52G, G81S
B41: AAV-binding protein No. 106 (AVR8g + Tyr355Cys) (receptor)
chain: B2 chain with Y46C, C52G, G81S

Key:
[1] = biological target: T1, VLP2 (virus-like particles of AAV2) (AAV2, UniProt P03135 1-735; P03135 1-598; P03135 1-533); experiment: ELISA on VLP2; binding after 43°C 15 min / untreated
T1 construct: Empty AAV2 capsid; background says about 60 protein molecules, VP1:VP2:VP3 = 1:1:10; Immobilised on the ELISA plate

[2] = biological target: T1, VLP2 (virus-like particles of AAV2); experiment: ELISA on VLP2; binding after pH 10.0 41.2°C 15 min / untreated

T1 sequence (P03135 whole entry, chain 1 of 3): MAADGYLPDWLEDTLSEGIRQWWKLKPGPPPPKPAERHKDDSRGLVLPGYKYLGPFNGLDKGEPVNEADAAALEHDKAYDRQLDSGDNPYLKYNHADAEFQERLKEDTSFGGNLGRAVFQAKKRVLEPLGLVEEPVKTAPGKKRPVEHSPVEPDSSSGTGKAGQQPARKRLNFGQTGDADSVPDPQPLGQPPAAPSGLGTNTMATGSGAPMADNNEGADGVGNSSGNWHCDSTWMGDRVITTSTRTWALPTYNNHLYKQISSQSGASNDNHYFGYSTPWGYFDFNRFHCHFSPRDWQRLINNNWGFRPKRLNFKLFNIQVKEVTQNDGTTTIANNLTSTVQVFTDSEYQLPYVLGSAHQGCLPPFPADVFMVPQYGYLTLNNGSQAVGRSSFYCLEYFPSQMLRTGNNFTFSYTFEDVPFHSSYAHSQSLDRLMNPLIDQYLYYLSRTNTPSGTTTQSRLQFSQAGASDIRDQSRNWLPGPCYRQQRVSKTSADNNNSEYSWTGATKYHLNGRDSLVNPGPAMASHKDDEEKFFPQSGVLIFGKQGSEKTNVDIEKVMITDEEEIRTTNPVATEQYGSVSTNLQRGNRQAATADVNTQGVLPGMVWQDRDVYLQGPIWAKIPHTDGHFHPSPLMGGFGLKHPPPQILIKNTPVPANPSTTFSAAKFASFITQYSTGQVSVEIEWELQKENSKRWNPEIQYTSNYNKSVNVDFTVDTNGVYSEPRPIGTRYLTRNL
T1 sequence (P03135 139-735, tags left off, chain 2 of 3): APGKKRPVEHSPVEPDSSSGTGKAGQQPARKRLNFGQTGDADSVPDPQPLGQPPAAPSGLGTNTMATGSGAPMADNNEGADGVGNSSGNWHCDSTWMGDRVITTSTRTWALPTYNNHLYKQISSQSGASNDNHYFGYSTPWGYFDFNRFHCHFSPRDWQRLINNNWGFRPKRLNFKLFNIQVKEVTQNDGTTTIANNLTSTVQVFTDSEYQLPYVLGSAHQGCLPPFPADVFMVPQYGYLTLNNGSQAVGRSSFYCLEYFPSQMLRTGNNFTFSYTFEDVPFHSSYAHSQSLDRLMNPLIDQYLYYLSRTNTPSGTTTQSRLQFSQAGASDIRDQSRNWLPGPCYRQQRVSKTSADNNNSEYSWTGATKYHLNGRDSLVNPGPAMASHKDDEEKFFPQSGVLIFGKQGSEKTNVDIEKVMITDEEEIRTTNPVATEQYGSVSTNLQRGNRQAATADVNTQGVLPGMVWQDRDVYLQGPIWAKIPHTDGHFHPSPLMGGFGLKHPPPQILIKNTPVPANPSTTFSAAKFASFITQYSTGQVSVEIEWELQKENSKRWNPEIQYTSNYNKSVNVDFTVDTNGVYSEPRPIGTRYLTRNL
T1 sequence (P03135 203-735, chain 3 of 3): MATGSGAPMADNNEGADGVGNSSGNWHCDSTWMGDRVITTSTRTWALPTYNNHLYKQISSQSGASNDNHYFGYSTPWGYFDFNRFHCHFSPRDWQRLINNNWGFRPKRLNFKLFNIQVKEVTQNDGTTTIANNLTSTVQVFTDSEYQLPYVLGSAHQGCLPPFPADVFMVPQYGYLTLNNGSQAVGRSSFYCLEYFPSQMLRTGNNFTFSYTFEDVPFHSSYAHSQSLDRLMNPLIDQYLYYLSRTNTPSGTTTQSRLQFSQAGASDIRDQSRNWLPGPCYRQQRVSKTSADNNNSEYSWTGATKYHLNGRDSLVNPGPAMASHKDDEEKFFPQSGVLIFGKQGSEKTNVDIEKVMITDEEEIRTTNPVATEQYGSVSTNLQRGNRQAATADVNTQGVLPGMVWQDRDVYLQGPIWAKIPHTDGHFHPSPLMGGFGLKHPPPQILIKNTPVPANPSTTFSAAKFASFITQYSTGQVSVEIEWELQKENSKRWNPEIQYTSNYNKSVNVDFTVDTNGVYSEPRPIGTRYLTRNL

Row | Binder | Residual activity [%] [1] [%] | Residual activity [%] [2] [%]
1 | B1 | 80.9 | 
2 | B2 |  | 51.5
3 | B3 |  | 63.9
4 | B4 |  | 38.8
5 | B5 |  | 86.3
6 | B6 |  | 23.3
7 | B7 | 65.7 | 
8 | B8 |  | 45.3
9 | B9 |  | 74.9
10 | B10 |  | 41.1
11 | B11 |  | 24.3
12 | B12 |  | 70.3
13 | B13 |  | 40.3
14 | B14 |  | 57.8
15 | B15 |  | 34.9
16 | B16 |  | 67.6
17 | B17 |  | 56.5
18 | B18 |  | 62.1
19 | B19 |  | 40.2
20 | B20 |  | 67.5
21 | B21 |  | 66.7

Row | Binder | Residual activity [%] [1] [%] | Residual activity [%] [2] [%]
22 | B22 |  | 25.2
23 | B23 |  | 59.5
24 | B24 |  | 62.1
25 | B25 |  | 36.3
26 | B26 |  | 63.1
27 | B27 |  | 72.8
28 | B28 |  | 35
29 | B29 |  | 60.5
30 | B30 | 79 | 
31 | B31 |  | 41.4
32 | B32 |  | 34.5
33 | B33 |  | 91.6
34 | B34 | 81.3 | 
35 | B35 |  | 32.4
36 | B36 |  | 36.5
37 | B37 |  | 76.7
38 | B38 |  | 89.9
39 | B39 | 87.2 | 
40 | B40 |  | 33.3
41 | B41 |  | 63.8
